# Laboratory results taken from patent US20210040221A1 (published 2021).
# Substitutions are numbered along the chain they refer to. Where two headings read alike, the source gives them in different places.
# B1: Antibody 3 (antibody, V domains shown)
# VH: EVQLLESGGGLVQPGGSLRLSCAASGFTFSSYGMSWVRQAPGKGLELVSTINGYGDTTYYPDSVKGRFTISRDNAKNTLYLQMNSLRAEDTAVYFCARDRDYGNSYYYALDYWGQGTLVTVSS
# VL: EIVLTQSPGTLSLSPGERATLSCRASSSVSFMHWLQQKPGQAPRPLIYATSNLASGIPDRFSGSGSGTDYTLTISRLEPEDFAVYYCQQWSSNPPAFGQGTKLEIK
# B2: Antibody 2 (antibody, V domains shown)
# VH: B1 VH with A75S, F95Y
# VL: B1 VL with E1Q, A42S
# B3: Antibody 1 (antibody, V domains shown)
# VH: B1 VH with A75S, F95Y
# VL: B1 VL
# B4: Antibody 4 (antibody, V domains shown)
# VH: B1 VH
# VL: B1 VL with E1Q, A42S
# Legend:
# [1] = molecular target: T1, recombinant human CD25 his tagged (UniProt P01589 22-213); experiment: SPR (Biacore 2000)
# T1 chain: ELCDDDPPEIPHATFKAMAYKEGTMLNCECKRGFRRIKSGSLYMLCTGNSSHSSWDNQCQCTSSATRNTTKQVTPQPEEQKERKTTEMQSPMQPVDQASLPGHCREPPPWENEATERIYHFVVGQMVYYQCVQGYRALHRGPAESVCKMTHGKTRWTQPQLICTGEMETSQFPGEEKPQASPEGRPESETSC
# [2] = molecular target: T1, recombinant human CD25 his tagged; experiment: SPR (Biacore 2000)
Binder,Kd [1] [nM],Kd [2] [nM]
B1,6.1,–
B2,–,6.1
B3,–,4.7
B4,5.5,–
